Data reported in US20050164345A1, “Synthesis of human procollagens and collagens in recombinant DNA systems” (priority 1992, published 2005).

System: prolyl 4-hydroxylase
Assay: prolyl 4-hydroxylase activity of Triton X-100 extracts from insect cells (hydroxylation-coupled decarboxylation of 2-oxo[1-14C]glutarate)
Assay type: biochemical
Settings: Triton extract, 72 h after infection
Protocol: The 0.2% Triton X-100 extracts of cell homogenates were analyzed for prolyl 4-hydroxylase activity with an assay based on the hydroxylation-coupled decarboxylation of 2-oxo [1-^14C] glutarate (Kivirikko et al., Methods EnzVmol. 82: 245-304 (1982)). As reported previously (Veijola et al., J. Biol. Chem. 269: 26746-26753 (1994)), a significant level of prolyl 4-hydroxylase activity was found in both Sf9 and High Five cells, the activity in High Five cells being distinctly higher than that in Sf9 cells (Table I). […]
Insect cells (Sf9 or High Five, Invitrogen) were cultured in TNM-FH medium (Sigma) supplemented with 10% fetal bovine serum (BioClear) or in a serum-free HyQ CCM3 medium (HyClone) either as monolayers or in suspension in shaker flasks at 27° C. […] The remaining cell pellet that was insoluble in the homogenization buffer was further solubilized in 1% SDS and analyzed by SDS-PAGE^1. […] Aliquots of the supernatants of the cell homogenates and the concentrated cell culture medium were analyzed by denaturing SDS-PAGE, followed by staining with Coomassie Brilliant Blue or Western blotting with an antibody to the N-propeptide of human type III procollagen.

B1: Proα1 (III) chains: Triton X-100 extract of insect cells expressing only proα1 chains of human type III procollagen (protein, UniProt P02461 24-1466, looked up)
pro-form: QQEAVEGGCSHLGQSYADRDVWKPEPCQICVCDSGSVLCDDIICDDQELDCPNPEIPFGECCAVCPQPPTAPTRPPNGQGPQGPKGDPGPPGIPGRNGDPGIPGQPGSPGSPGPPGICESCPTGPQNYSPQYDSYDVKSGVAVGGLAGYPGPAGPPGPPGPPGTSGHPGSPGSPGYQGPPGEPGQAGPSGPPGPPGAIGPSGPAGKDGESGRPGRPGERGLPGPPGIKGPAGIPGFPGMKGHRGFDGRNGEKGETGAPGLKGENGLPGENGAPGPMGPRGAPGERGRPGLPGAAGARGNDGARGSDGQPGPPGPPGTAGFPGSPGAKGEVGPAGSPGSNGAPGQRGEPGPQGHAGAQGPPGPPGINGSPGGKGEMGPAGIPGAPGLMGARGPPGPAGANGAPGLRGGAGEPGKNGAKGEPGPRGERGEAGIPGVPGAKGEDGKDGSPGEPGANGLPGAAGERGAPGFRGPAGPNGIPGEKGPAGERGAPGPAGPRGAAGEPGRDGVPGGPGMRGMPGSPGGPGSDGKPGPPGSQGESGRPGPPGPSGPRGQPGVMGFPGPKGNDGAPGKNGERGGPGGPGPQGPPGKNGETGPQGPPGPTGPGGDKGDTGPPGPQGLQGLPGTGGPPGENGKPGEPGPKGDAGAPGAPGGKGDAGAPGERGPPGLAGAPGLRGGAGPPGPEGGKGAAGPPGPPGAAGTPGLQGMPGERGGLGSPGPKGDKGEPGGPGADGVPGKDGPRGPTGPIGPPGPAGQPGDKGEGGAPGLPGIAGPRGSPGERGETGPPGPAGFPGAPGQNGEPGGKGERGAPGEKGEGGPPGVAGPPGGSGPAGPPGPQGVKGERGSPGGPGAAGFPGARGLPGPPGSNGNPGPPGPSGSPGKDGPPGPAGNTGAPGSPGVSGPKGDAGQPGEKGSPGAQGPPGAPGPLGIAGITGARGLAGPPGMPGPRGSPGPQGVKGESGKPGANGLSGERGPPGPQGLPGLAGTAGEPGRDGNPGSDGLPGRDGSPGGKGDRGENGSPGAPGAPGHPGPPGPVGPAGKSGDRGESGPAGPAGAPGPAGSRGAPGPQGPRGDKGETGERGAAGIKGHRGFPGNPGAPGSPGPAGQQGAIGSPGPAGPRGPVGPSGPPGKDGTSGHPGPIGPPGPRGNRGERGSEGSPGHPGQPGPPGPPGAPGPCCGGVGAAAIAGIGGEKAGGFAPYYGDEPMDFKINTDEIMTSLKSVNGQIESLISPDGSRKNPARNCRDLKFCHPELKSGEYWVDPNQGCKLDAIKVFCNMETGETCISANPLNVPRKHWWTDSSAEKKHVWFGESMDGGFQFSYGNPELPEDVLDVHLAFLRLLSSRASQNITYHCKNSIAYMDQASGNVKKALKLMGSNEGEFKAEGNSKFTYTVLEDGCTKHTGEWSKTVFEYRTRKAVRLPIVDIAPYDIGGPDQEFGVDVGPVCFL
modifications: pro-form
notes: Triton X-100 extract of insect cells expressing only proα1 chains of human type III procollagen
Prolyl 4-hydroxylase activity (High Five cells, mean of duplicates in three experiments): 500 dpm/10 μl | Prolyl 4-hydroxylase activity (Sf9 cells, mean of duplicates in one experiment): 60 dpm/10 μl
